Source: patent publication US5597711A, “Factor VIII binding domain of von Willebrand factor” (The Scripps Research Institute, priority 1995, dated 1997)
Blank lines part the entries; values can stand above or below the compound they belong to.

Legend:
[1] = biological target: T1, vWF-FVIII complex (Homo sapiens, UniProt P00451); test: Dissociation of FVIII from vWF immobilized on polystyrene beads by washing; format: binding
T1 construct: The purification of FVIII from commercial factor VIII concentrate (Armour Pharmaceutical, Kankakee, IL), by immunoadsorbent chromatography; tissue Armour Pharmaceutical, Kankakee, Ill; host or cells: commercial factor VIII concentrate, both proteins purified in house by immunoadsorbent chromatography
T1 sequence (P00451 1668-2351 limits assumed): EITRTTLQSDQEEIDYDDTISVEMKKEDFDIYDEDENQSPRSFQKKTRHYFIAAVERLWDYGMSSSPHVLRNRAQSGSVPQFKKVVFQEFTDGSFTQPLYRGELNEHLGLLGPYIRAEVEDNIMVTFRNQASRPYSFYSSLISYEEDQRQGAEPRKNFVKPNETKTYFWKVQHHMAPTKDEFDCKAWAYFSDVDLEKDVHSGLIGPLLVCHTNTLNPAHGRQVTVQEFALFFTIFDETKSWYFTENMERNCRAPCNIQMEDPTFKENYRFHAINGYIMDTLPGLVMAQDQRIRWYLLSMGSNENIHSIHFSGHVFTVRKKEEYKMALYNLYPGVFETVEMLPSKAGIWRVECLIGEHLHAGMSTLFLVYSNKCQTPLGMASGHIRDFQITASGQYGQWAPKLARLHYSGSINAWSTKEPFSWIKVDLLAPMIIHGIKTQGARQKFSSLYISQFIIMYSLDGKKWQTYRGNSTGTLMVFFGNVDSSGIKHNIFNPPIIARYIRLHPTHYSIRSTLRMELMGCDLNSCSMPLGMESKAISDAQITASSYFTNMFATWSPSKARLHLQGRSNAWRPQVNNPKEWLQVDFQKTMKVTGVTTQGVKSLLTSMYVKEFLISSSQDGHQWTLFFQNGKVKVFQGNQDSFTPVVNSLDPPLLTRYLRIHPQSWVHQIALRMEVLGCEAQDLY
T1 sequence (P00451 20-759 partner limits assumed): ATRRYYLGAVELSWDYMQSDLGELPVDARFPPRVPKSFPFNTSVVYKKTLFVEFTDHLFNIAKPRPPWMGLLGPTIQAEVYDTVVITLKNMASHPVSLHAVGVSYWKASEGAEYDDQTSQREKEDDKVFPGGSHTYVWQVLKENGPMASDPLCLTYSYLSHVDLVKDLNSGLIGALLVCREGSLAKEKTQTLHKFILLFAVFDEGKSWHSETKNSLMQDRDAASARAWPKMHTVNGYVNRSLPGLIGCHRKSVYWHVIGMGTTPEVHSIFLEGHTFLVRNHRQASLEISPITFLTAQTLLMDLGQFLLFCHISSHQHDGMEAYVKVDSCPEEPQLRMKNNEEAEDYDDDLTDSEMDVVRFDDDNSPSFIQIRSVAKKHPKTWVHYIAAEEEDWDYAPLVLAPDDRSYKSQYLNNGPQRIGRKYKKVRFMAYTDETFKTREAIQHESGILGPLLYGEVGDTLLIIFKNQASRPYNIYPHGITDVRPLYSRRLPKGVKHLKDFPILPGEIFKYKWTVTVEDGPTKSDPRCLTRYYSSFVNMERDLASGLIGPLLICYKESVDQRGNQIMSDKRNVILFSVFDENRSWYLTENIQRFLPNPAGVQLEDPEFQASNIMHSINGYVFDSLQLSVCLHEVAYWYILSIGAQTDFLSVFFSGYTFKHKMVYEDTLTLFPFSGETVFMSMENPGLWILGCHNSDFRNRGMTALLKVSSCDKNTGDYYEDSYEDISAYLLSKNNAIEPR
Experimental: (§1) Competitive inhibition assay of FVIII binding to solid phase vWF: 50 μg of whole unreduced vWF in 1 ml of 0.01M PO4, 0.15M Nacl, 0.02% NaN3, pH 7.3 (PBS), was incubated with three 1/4 inch in diameter polystyrene beads (Pierce Chemical Company, Rockford, Ill.) per 16 mm in diameter tissue culture well for 2 hours at room temperature. The solution was removed and the wells and the beads were then blocked with 1 ml of PBS containing 0.05% Tween-20 and 3% human serum albumin for 1 hour at room temperature. The wells and the beads were stored in the blocking solution at 4° C. for 16 hours to 10 days before use. The wells and beads were then washed ×3 with PBS. 0.05% Tween-20 and incubated for 11/2 hours at room temperature with 1.3 μg of purified FVIII and 0-100 μg of the competitive ligand in 1 ml of 0.05M imidazole, 0.15M Nacl, 0.02% NaN3, pH 7.0, 3 mM CaCl. The beads then were washed ×5 with PBS 0.05% Tween-20 and incubated for 11/2 hour at room temperature with 1.5×10^6 cpm of ^125 I-monoclonal anti-FVIII antibody C2 (specific activity 3.8×10^9 cpm/mg), in 1 ml of PBS 0.05% Tween-20 containing 0.5% bovine gamma globulin. After incubation, the wells and beads were washed with PBS 0.05% Tween-20×2. The beads were then transferred to clean wells and washed an additional four times and separately counted.
54, 1093-1094 (1974), 10-20 mM EDTA according to Tran et al., Thromb. Haemostas. 50, 547-551 (1983) or 1-1.5M Nacl according to Weiss et al., Thromb. Diath. Haemorrh. 27, 212-219 (1972).

[2] = biological target: T2, FVIII binding to solid phase vWF (Homo sapiens, UniProt P00451); test: Competitive inhibition assay of FVIII binding to solid phase vWF; conditions: competitive ligand in fluid phase, 0-100 μg in 1 ml
T2 construct: The purification of FVIII from commercial factor VIII concentrate (Armour Pharmaceutical, Kankakee, IL), by immunoadsorbent chromatography; tissue Armour Pharmaceutical, Kankakee, Ill; host or cells: commercial factor VIII concentrate, both proteins purified in house by immunoadsorbent chromatography
T2 sequence (P00451 1668-2351 limits assumed): T1 sequence (P00451 1668-2351 limits assumed)
T2 sequence (P00451 20-759 partner limits assumed): T1 sequence (P00451 20-759 partner limits assumed)
Experimental: as §1, with “counted. […]” for “counted.”

[3] = biological target: T3, purified FVIII (Homo sapiens, UniProt P00451); test: Crossed immunoelectrophoresis: complex formation of vWF or vWF fragments with FVIII; format: binding; conditions: co-precipitation of 125I-labeled monoclonal anti-FVIII antibody
T3 construct: The purification of FVIII from commercial factor VIII concentrate (Armour Pharmaceutical, Kankakee, IL), by immunoadsorbent chromatography; tissue Armour Pharmaceutical, Kankakee, IL; host or cells: commercial factor VIII concentrate, purified in house by immunoadsorbent chromatography
T3 sequence (P00451 1668-2351 limits assumed): T1 sequence (P00451 1668-2351 limits assumed)
T3 sequence (P00451 20-759 partner limits assumed): T1 sequence (P00451 20-759 partner limits assumed)
Experimental: Two dimensional crossed immunoelectrophoresis of vWF was performed as described in Zimmerman et al., Immunoassays: Clinical Laboratory Techniques for the 1980's, pp. 339-349, Alan R. Liss, Inc., New York (1980), with the following modifications. Agarose was poured in a 1.5 cm strip at the bottom of a 10.2 cm×8.3 cm piece of Gelbond (FMC Corporation, Rockland, Me.). Purified vWF or fragments of vWF, FVIII, and ^125 I labeled monoclonal anti-FVIII antibody were mixed in the sample well and electrophoresed. A second gel containing 125-250 μl of rabbit serum containing polyclonal anti-vWF antibodies was then poured and the second dimension was electrophoresed at right angles to the first dimension. Autoradiographs were made of the gels and compared to Coomassie brilliant blue staining of the gels.

[4] = biological target: T3, purified FVIII; test: Binding of purified FVIII to vWF or SP fragment III immobilized on polystyrene beads; conditions: protein adsorbed on polystyrene beads; detected with 125I-labeled monoclonal anti-FVIII antibody
Experimental: as §1, with “counted. […]” for “counted.”

dissociation of FVIII from vWF ([1]; five washings with imidazole buffered saline containing 3 mM CaCl2): no FVIII dissociation | dissociation of FVIII from vWF ([1]; five washings with imidazole buffered saline containing 0.25M CaCl2 at 37° C.): 70 ±4%
Compound: [Ca+2].[Cl-].[Cl-] [CaCl2]

dissociation of FVIII from vWF ([1]; five washings with imidazole buffered saline containing 20 mM EDTA): 66 ±5%
Compound: O=C(O)CN(CCN(CC(=O)O)CC(=O)O)CC(=O)O [EDTA]

Compound: [Cl-].[Na+] [Nacl]
dissociation of FVIII from vWF ([1]; five washings with imidazole buffer containing 1.5M Nacl): 86 ±1%

inhibition of FVIII binding to immobilized vWF (in words) [2]: no inhibitory effect | complex formation with FVIII [3]: unable to bind FVIII
Compound: Reduced and alkylated vWF: vWF after reduction and alkylation

binding of purified FVIII to the immobilized protein [4]: bound | inhibition of FVIII binding to immobilized vWF (in words) [2]: completely inhibit | complex formation with FVIII [3]: demonstrated complex formation
Compound: vWF: purified von Willebrand factor from commercial factor VIII concentrate
